In patent publication US20250011397A1 (HOSPITAL FOR SICK CHILDREN, published 2025):
Residue numbers refer to the chain shown, from its start. Where “and” joins values, the source holds several entries; their conditions need not be identical. Equal values may be shown once. Read-outs that look alike come from different tables or passages of the source.

T1: mouse FcRn (mouse, UniProt Q61559 22-297; P01887 21-119)
T1 sequence (looked up) 1: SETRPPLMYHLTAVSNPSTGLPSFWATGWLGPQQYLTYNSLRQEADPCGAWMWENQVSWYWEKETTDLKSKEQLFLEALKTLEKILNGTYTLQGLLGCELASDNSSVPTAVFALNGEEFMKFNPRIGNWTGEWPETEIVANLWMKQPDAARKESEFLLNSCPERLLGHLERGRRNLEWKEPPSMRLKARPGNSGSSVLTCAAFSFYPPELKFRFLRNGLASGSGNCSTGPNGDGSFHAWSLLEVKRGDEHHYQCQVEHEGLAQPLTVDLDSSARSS
T1 sequence (looked up) 2: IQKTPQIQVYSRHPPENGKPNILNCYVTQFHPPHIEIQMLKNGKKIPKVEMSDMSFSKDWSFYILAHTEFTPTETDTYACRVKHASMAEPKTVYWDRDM

T2: mouse FcγRI (mouse, UniProt P26151 25-297)
T2 sequence (looked up): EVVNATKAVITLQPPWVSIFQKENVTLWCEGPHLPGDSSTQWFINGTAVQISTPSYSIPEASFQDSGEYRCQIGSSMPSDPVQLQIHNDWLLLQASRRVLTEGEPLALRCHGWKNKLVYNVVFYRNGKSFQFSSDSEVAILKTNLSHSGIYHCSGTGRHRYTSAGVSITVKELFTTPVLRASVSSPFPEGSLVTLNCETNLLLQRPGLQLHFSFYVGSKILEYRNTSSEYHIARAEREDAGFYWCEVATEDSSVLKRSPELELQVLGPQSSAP

B1: 4A8 IgG (antibody, V domains shown)
VH: EVQLVESGAEVKKPGASVKVSCKVSGYTLTELSMHWVRQAPGKGLEWMGGFDPEDGETMYAQKFQGRVTMTEDTSTDTAYMELSSLRSEDTAVYYCATSTAVAGTPDLFDYYYGMDVWGQGTTVTVSS
VL: EIVMTQSPLSSPVTLGQPASISCRSSQSLVHSDGNTYLSWLQQRPGQPPRLLIYKISNRFSGVPDRFSGSGAGTDFTLKISRVEAEDVGVYYCTQATQFPYTFGQGTKVDIK
notes: also called IgG 4A8
B2: MB 324 (other)
heavy: QVQLVQSGAEVKKPGASVKVSCKASGGTFNNYGISWVRQAPGQGLEWMGWMNPNSGNTGYAQKFQGRVTMTRDTSTSTVYMELSSLRSEDTAVYYCARVGDYGDYIVSPFDLWGRGTLVTVSSASTKGPSVFPLAPSSKSTSGGTAALGCLVKDYFPEPVTVSWNSGALTSGVHTFPAVLQSSGLYSLSSVVTVPSSSLGTQTYICNVNHKPSNTKVDKKVEPKSC
light: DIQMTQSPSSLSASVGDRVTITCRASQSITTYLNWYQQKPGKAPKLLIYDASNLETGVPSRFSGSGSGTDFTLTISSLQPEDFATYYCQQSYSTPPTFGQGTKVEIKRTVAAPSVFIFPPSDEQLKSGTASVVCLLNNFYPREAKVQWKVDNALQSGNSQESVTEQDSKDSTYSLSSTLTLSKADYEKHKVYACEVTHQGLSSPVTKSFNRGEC
B3: MB 46 (other)
heavy: EVQLLESGGGLVQPGRSLRLSCAASGFTFSSYAMSWVRQAPGKGLEWVSTIYSGGSTYYADSVKGRFTISRDNSKNTLYLQMNSLRAEDTAVYYCARGDSRDAFDIWGQGTMVTVSSASTKGPSVFPLAPSSKSTSGGTAALGCLVKDYFPEPVTVSWNSGALTSGVHTFPAVLQSSGLYSLSSVVTVPSSSLGTQTYICNVNHKPSNTKVDKKVEPKSC
light: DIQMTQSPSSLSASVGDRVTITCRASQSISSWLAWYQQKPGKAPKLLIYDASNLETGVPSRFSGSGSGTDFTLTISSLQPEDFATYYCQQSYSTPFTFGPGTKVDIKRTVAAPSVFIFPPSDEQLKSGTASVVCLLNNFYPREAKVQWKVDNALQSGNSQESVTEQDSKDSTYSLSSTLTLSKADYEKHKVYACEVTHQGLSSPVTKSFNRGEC
B4: mAb 52 (antibody, V domains shown)
VH: QVQLVQSGAEVKKPGSSVKVSCKASGYTFTSYGISWVRQAPGQGLEWMGGIIPMFGTTNYAQKFQGRVTITADKSTSTAYMELSSLRSEDTAVYYCARDRGDTIDYWGQGTLVTVSS
VL: DIQMTQSPSSLSASVGDRVTITCRASQGISNNLNWYQQKPGKAPKLLIYAASSLESGVPSRFSGSGSGTDFTLTISSLQPEDFATYYCQQGNGFPLTFGPGTKVDIKR
notes: also called IgG 52; antibody 52
B5: mAb 82 (antibody, V domains shown)
VH: QVQLVQSGAEVKKPGASVKVSCKASGGSFSTSAFYWVRQAPGQGLEWMGWINPYTGGTNYAQKFQGRVTMTRDTSTSTVYMELSSLRSEDTAVYYCARSRALYGSGSYFDYWGQGTLVTVSS
VL: DIQMTQSPSSLSASVGDRVTITCRASQVISNYLAWYQQKPGKAPKLLIYDASNLETGVPSRFSGSGSGTDFTLTISSLQPEDFATYYCQQSFSPPPTFGQGTRLEIKR
notes: also called IgG 82
B6: mAb 324 (antibody, V domains shown)
VH: QVQLVQSGAEVKKPGASVKVSCKASGGTFNNYGISWVRQAPGQGLEWMGWMNPNSGNTGYAQKFQGRVTMTRDTSTSTVYMELSSLRSEDTAVYYCARVGDYGDYIVSPFDLWGRGTLVTVSS
VL: B5 VL with V28S, S30T, N31T, A34N, F92Y, P94T, R103K, L104V
notes: also called IgG 324
B7: mAb 46 (antibody, V domains shown)
VH: EVQLLESGGGLVQPGRSLRLSCAASGFTFSSYAMSWVRQAPGKGLEWVSTIYSGGSTYYADSVKGRFTISRDNSKNTLYLQMNSLRAEDTAVYYCARGDSRDAFDIWGQGTMVTVSS
VL: B5 VL with V28S, N31S, Y32W, F92Y, P94T, P96F, Q100P, R103K, L104V, E105D
notes: also called IgG 46; antibody 46
B8: MB 82 (other)
heavy: QVQLVQSGAEVKKPGASVKVSCKASGGSFSTSAFYWVRQAPGQGLEWMGWINPYTGGTNYAQKFQGRVTMTRDTSTSTVYMELSSLRSEDTAVYYCARSRALYGSGSYFDYWGQGTLVTVSSASTKGPSVFPLAPSSKSTSGGTAALGCLVKDYFPEPVTVSWNSGALTSGVHTFPAVLQSSGLYSLSSVVTVPSSSLGTQTYICNVNHKPSNTKVDKKVEPKSC
light: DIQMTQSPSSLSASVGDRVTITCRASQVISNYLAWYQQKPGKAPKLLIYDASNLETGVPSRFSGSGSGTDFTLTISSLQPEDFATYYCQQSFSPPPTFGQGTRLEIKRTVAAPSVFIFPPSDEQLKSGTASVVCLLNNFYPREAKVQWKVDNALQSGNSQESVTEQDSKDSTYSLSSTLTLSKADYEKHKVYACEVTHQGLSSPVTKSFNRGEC
B9: mAb 236 (antibody, V domains shown)
VH: QVQLVQSGAEVKKPGASVKVSCKASGGTFTSYGINWVRQAPGQGLEWMGWMNPNSGNTGYAQKFQGRVTMTRDTSTSTVYMELSSLRSEDTAVYYCASRGIQLLPRGMDVWGQGTTVTVSS
VL: not shown
notes: also called IgG 236
B10: HD37 (anti-hCD19) mouse IgG2a, parental IgG (antibody)
chain: DILLTQTPASLAVSLGQRATISCKASQSVDYDGDSYLNWYQQIPGQPPKLLIYDASNLVSGIPPRFSGSGSGTDFTLNIHPVEKVDAATYHCQQSTEDPWTFGGGTKLEIKRADAAPTVSIFPPSSEQLTSGGASVVCFLNNFYPKDINVKWKIDGSERQNGVLNSWTDQDSKDSTYSMSSTLTLTKDEYERHNSYTCEATHKTSTSPIVKSFNRNECGGSSGSGSGSTGTSSSGTGTSAGTTGTSASTSGSGSGGGGGSGGGGSAGGTATAGASSGSGSSGSSSSGGTGTGQVQLQQSGAELVRPGSSVKISCKASGYAFSSYWMNWVKQRPGQGLEWIGQIWPGDGDTNYNGKFKGKATLTADESSSTAYMQLSSLASEDSAVYFCARRETTTVGRYYYAMDYWGQGTSVTVSSSQSFPNVFPLVSCESPLSDKNLVAMGCLARDFLPSTISFTWNYQNNTEVIQGIRTFPTLRTGGKYLATSQVLLSPKSILEGSDEYLVCKIHYGGKNRDLHVPIPSKPCPPCKCPAPNLLGGPSVFIFPPKIKDVLMISLSPIVTCVVVDVSEDDPDVQISWFVNNVEVHTAQTQTHREDYNSTLRVVSALPIQHQDWMSGKEFKCKVNNKDLPAPIERTISKPKGSVRAPQVYVLPPPEEEMTKKQVTLTCMVTDFMPEDIYVEWTNNGKTELNYKNTEPVLDSDGSYFMYSKLRVEKKNWVERNSYSCSVVHEGLHNHHTTKSFSRTPGK
notes: also called mIgG2a control; HD37 single chain IgG2a

Legend:
[1] = biological target: T3, SARS-CoV-2 Spike on HIV-based pseudotyped virus (Spike plasmid BEI NR52310) (SARS-CoV-2, UniProt P0DTC2 14-1273); experiment: cell-based or functional assay
[2] = biological target: T3, SARS-CoV-2 Spike on HIV-based …; experiment: cell-based or functional assay; remark: listed apart in the source
[3] = biological target: Spike of authentic SARS-CoV-2/SB2-P4-PB virus (SARS-CoV-2, UniProt P0DTC2 14-1273); experiment: cell-based or functional assay
[4] = biological target: T3, SARS-CoV-2 Spike on HIV-based …; experiment: cell-based or functional assay; remark: listed apart in the source
mouse FcRn [5] = biological target: T1, mouse FcRn
mouse FcRn [6] = biological target: T1, mouse FcRn; experiment: pH 5.6
mouse FcγRI = biological target: T2, mouse FcγRI

Row | Binder | Median IC50 (PsV neutralization) [2] | IC50 SARS-CoV2/SB2-P4-PB (µg/mL), MB [3] [µg/mL] | IC50 SARS-CoV2 PsV (µg/mL), MB [4] [µg/mL] | IC50 SARS-CoV2/SB2-P4-PB (µg/mL), IgG [3] [µg/mL] | IC50 SARS-CoV2 PsV (µg/mL), IgG [4] [µg/mL] | also measured
1 | B1 | – | – | – | – | – | Median IC50 (PsV neutralization) [1]: > 100 µg/mL and > 0.66 µM
2 | B2 | 0.0009 µg/mL and 0.39 pM | 0.024 | 0.0009 | – | – | –
3 | B3 | 0.0024 µg/mL and 1 pM | 0.027 | 0.0024 | – | – | –
4 | B4 | 0.61 µg/mL and 4.1 nM | – | – | 6.2 | 0.55 | –
5 | B5 | 1.6 µg/mL and 11 nM | – | – | – | 1.6 | –
6 | B6 | 0.78 µg/mL and 5.2 nM | – | – | 21 | 0.78 | –
7 | B7 | 2.1 µg/mL and 14 nM | – | – | 19 | 2.1 | –
8 | B8 | 0.0022 µg/mL and 0.95 pM | 0.21 | 0.0022 | – | – | –
9 | B9 | 0.057 µg/mL and 0.38 nM | – | – | 5.5 | 0.057 | –
10 | B10 | – | – | – | – | – | kon (mouse FcRn [5]): 116000 M⁻¹ s⁻¹; Kd (mouse FcRn [6]): 1.06 nM; koff (mouse FcRn [6]): 0.000123 s⁻¹; Kd (mouse FcγRI): 8.63 nM; koff (mouse FcγRI): 0.000451 s⁻¹; kon (mouse FcγRI): 52200 M⁻¹ s⁻¹
